In article PMC10397247:
Each block holds one binder with its values, some of them ahead of it.

What was measured:
[1] = target: T1, APC5009-AA; assay: two-hybrid library CCmax; details: mean of both orientations;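 further: natural log of median RNA to DNA barcode read ratio; higher means stronger binding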
T1 chain: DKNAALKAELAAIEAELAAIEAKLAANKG

[2] = target: T2, APC4100-AA; assay: two-hybrid library CCmax;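 further: natural log of median RNA to DNA barcode read ratio; higher means stronger binding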
T2 chain: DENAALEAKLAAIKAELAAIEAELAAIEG

[3] = target: T3, APC9291-AA; assay: two-hybrid library CCmax; details: mean of both orientations;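 further: natural log of median RNA to DNA barcode read ratio; higher means stronger binding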
T3 chain: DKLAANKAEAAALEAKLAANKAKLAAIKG

[4] = target: T4, APC5531-AA; assay: two-hybrid library CCmax; details: mean of both orientations;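 further: natural log of median RNA to DNA barcode read ratio; higher means stronger binding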
T4 chain: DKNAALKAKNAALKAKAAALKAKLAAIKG

[5] = target: T5, APC8401-AA; assay: two-hybrid library CCmax; details: mean of both orientations
T5 chain: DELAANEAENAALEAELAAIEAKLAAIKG

[6] = target: T6, APC9806-AA; assay: two-hybrid library CCmax; details: mean of both orientations
T6 chain: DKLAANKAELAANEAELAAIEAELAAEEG

[7] = target: T7, APC542-AA; assay: two-hybrid library CCmax; details: mean of both orientations
T7 chain: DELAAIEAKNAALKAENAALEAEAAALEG

[8] = target: T8, APC6088-AA; assay: two-hybrid library CCmax; details: mean of both orientations
T8 chain: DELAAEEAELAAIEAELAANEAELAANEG

[9] = target: T9, APC7524-AA; assay: two-hybrid library CCmax; details: mean of both orientations
T9 chain: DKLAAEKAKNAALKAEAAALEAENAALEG

[10] = target: T10, APC8516-AA; assay: two-hybrid library CCmax; details: mean of both orientations
T10 chain: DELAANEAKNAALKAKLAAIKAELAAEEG

[11] = target: T11, APC9182-AA; assay: two-hybrid library CCmax; details: mean of both orientations
T11 chain: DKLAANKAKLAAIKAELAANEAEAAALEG

[12] = target: T12, APC4336-AA; assay: two-hybrid library CCmax; details: mean of both orientations
T12 chain: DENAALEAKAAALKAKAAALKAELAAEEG

[13] = target: T13, APC9141-AA; assay: two-hybrid library CCmax; details: mean of both orientations
T13 chain: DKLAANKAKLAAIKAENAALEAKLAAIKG

[14] = target: T14, 4H963-AA; assay: two-hybrid library CCmax
T14 chain: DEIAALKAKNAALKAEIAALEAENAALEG

[15] = target: T15, APC7099-AA; assay: two-hybrid library CCmax; details: mean of both orientations
T15 chain: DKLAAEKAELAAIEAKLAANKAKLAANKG

[16] = target: T16, APC9096-AA; assay: two-hybrid library CCmax; details: mean of both orientations
T16 chain: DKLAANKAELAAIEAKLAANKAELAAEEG

[17] = target: T17, APC9319-AA; assay: two-hybrid library CCmax; details: mean of both orientations
T17 chain: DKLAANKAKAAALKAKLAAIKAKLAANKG

[18] = target: T18, APC4436-AA; assay: two-hybrid library CCmax; details: mean of both orientations
T18 chain: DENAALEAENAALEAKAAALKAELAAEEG

[19] = target: T19, APC5383-AA; assay: two-hybrid library CCmax; details: mean of both orientations
T19 chain: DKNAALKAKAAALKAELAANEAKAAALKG

[20] = target: T20, APC6108-AA; assay: two-hybrid library CCmax; details: mean of both orientations
T20 chain: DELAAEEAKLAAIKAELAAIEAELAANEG

[21] = target: T21, APC4264-AA; assay: two-hybrid library CCmax
T21 chain: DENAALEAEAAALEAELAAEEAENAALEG

[22] = target: T22, APC8910-AA; assay: two-hybrid library CCmax; details: mean of both orientations
T22 chain: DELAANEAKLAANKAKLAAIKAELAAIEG

[23] = target: T23, APC8191-AA; assay: two-hybrid library CCmax
T23 chain: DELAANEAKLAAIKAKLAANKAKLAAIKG

[24] = target: T24, 4H796-bH; assay: two-hybrid library CCNG1
T24 chain: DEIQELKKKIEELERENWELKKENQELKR

[25] = target: T25, 4H932-bH; assay: two-hybrid library CCNG1
T25 chain: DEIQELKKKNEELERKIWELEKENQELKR

[26] = target: T26, 4H349-bH; assay: two-hybrid library CCNG1
T26 chain: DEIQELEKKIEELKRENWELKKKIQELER

[27] = target: T27, 4H730-bH; assay: two-hybrid library CCNG1
T27 chain: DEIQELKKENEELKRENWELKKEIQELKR

[28] = target: T28, 4H949-bH; assay: two-hybrid library CCNG1
T28 chain: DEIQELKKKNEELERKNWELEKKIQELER

[29] = target: T29, 4H56-bH; assay: two-hybrid library CCNG1
T29 chain: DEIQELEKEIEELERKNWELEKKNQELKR

interaction score [1]: 0.706
interaction score [2]: 0.507
interaction score [3]: -1.29
interaction score [4]: -0.557
interaction score [5]: -1.35
interaction score [6]: -1.87
interaction score [7]: -1.56
interaction score [8]: -1.46
interaction score [9]: -1.84
interaction score [10]: -1.71
interaction score [11]: -1.63
interaction score [12]: -0.916
interaction score [13]: -1.35
Binder: DENAALEAKLAAIKAELAAIEAELAAIEG [APC4100-AA]

interaction score [14]: -2.11
Binder: DEIAALKAKNAALKAEIAALEAENAALEG [4H963-AA]

interaction score [15]: -1.96
interaction score [16]: -1.45
interaction score [17]: -1.52
interaction score [18]: -2.34
interaction score [19]: -1.3
interaction score [20]: -1.5
interaction score [21]: -1.24
interaction score [22]: -1.81
interaction score [23]: -1.56
Binder: DENAALEAEAAALEAELAAEEAENAALEG [APC4264-AA]

interaction score [24]: 0.227
interaction score [25]: 0.654
interaction score [26]: 0.275
interaction score [27]: -0.225
interaction score [28]: -0.023
interaction score [29]: 0.452
Binder: DEIQELEKKIEELKRENWELKKKIQELER [4H349-bH]
